Paper doi:10.1101/2022.06.15.496229 (bioRxiv, 2022)

B1: CDC42 (residues 1-191) (natural protein)
chain: not shown
B2: DHR2 domain of human DOCK10 (DOCK10^DHR2, residues 1695-2151) (domain or fragment)
chain: TPELRRTWLESMAKIHARNGDLSEAAMCYIHIAALIAEYLKRKGYWKVEKICTASLLSEDTHPCDSNSLLTTPSGGSMFSMGWPAFLSITPNIKEEGAMKEDSGMQDTPYNENILVEQLYMCVEFLWKSERYELIADVNKPIIAVFEKQRDFKKLSDLYYDIHRSYLKVAEVVNSEKRLFGRYYRVAFYGQGFFEEEEGKEYIYKEPKLTGLSEISQRLLKLYADKFGADNVKIIQDSNKVNPKDLDPKYAYIQVTYVTPFFEEKEIEDRKTDFEMHHNINRFVFETPFTLSGKKHGGVAEQCKRRTILTTSHLFPYVKKRIQVISQSSTELNPIEVAIDEMSKKVSELNQLCTMEEVDMIRLQLKLQGSVSVKVNAGPMAYARAFLEETNAKKYPDNQVKLLKEIFRQFADACGQALDVNERLIKEDQLEYQEELRSHYKDMLSELSTVMNEQITG

Assays:
[1] = target: B2; assay: crystal structure
[2] = target: B2; assay: ITC
[3] = target: the molecule itself; assay: crystal structure

Binder	stoichiometry N [1]	dH [2]	binding result [3]
B1	1 DOCK10^DHR2 per CDC42	2.034 ± 0.0143 kcal/mol	–
B2	–	–	binds
